For assay [1], the target named is T1, CEGPCR3 receptor (Caenorhabditis elegans, UniProt P90745).
T1 sequence (P90745 1-376): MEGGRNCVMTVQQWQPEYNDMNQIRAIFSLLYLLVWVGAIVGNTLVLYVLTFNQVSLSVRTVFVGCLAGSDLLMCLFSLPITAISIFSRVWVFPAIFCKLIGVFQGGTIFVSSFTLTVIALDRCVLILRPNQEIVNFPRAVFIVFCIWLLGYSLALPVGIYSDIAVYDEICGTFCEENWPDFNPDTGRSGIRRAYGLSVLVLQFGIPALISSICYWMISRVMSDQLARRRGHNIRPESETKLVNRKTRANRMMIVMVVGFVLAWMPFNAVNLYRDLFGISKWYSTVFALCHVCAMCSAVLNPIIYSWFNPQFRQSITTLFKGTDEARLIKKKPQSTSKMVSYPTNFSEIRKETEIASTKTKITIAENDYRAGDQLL
Put plainly: [35S]GTPγS binding assay, membranes of CHO cells transiently transfected with CEGPCR3. Format: biochemical, C. elegans. The procedure: (§1) Recombinant pCR3.1 clones encoding invertebrate GPCR-like receptors were transformed into wild-type CHO-K1 cells and functional expression was achieved using a temperature-shift incubation protocol. The CHO-K1 cells were cultured at 37° C. in a humidified atmosphere of 5% CO2 in air in DMEM medium supplemented with 10% heat-inactivated fetal bovine serum (i.e., FBS), 10 μg/ml gentamicin, and 0.1 mM nonessential amino acids to give complete DMEM medium. Additionally, for incubations at temperatures lower than 37° C., the medium was fortified with 10 mM HEPES (pH 7.4). Cells were transfected with recombinant pCR3.1 clones containing GPCR-like receptor DNAs, using LipofectAMINE PLUS™, essentially according to the manufacturer's instructions. […] In separate plastic tubes, PLUS (20 μl/plate; Life Technologies) was added to 0.75 ml/plate of recombinant plasmid DNA in OptiMEM (5 μg/plate; Gibco/BRL—Life Technologies), mixed and incubated at room temperature for 15 minutes. Separately, LipofectAMINE (30 μl/plate) was mixed with 0.75 ml OptiMEM and added to the pre-complexed DNA/PLUS mixture and incubated at room temperature for 15 minutes. The culture medium was then replaced with serum-free transfection medium (DMEM, 5 ml/plate). The DNA-PLUS-LipofectAMINE complex was then added to the plates (1.5 ml/plate) and mixed gently into the medium, followed by a 3 hour incubation at 37° C. in 5% CO2. At this time, the medium was supplemented with complete DMEM medium containing 20% FBS (6.5 ml/plate) and incubation was continued at 37° C. in 5% CO2. After a total of 24 hours at 37° C. in 5% CO2, the medium was replaced with complete DMEM medium fortified with 10 mM HEPES (10 ml/plate) and the cells were moved to an incubator maintained at 28-30° C. in a humidified atmosphere of 5% CO2 in air. The incubation continued for an additional 24 hours, typically at the lower temperature indicated above. A plasmid encoding Green Fluorescent Protein (i.e., GFP, 4 μg/plate) was used for transient GFP expression in CHO-K1 cells to estimate the transfection yields under the same conditions as used for GPCR-like receptor polynucleotides.
(§2) To assess expression, membranes were prepared from transfected CHO-K1 cells. Transfected cells were washed once with ice-cold Dulbecco's phosphate-buffered saline (i.e., PBS), 5 ml per 10 cm plate, and the cells were scraped into 5 ml of the same buffer. Cell suspensions from multiple plates were combined and centrifuged at 500×g for 10 minutes at 4° C. The cell pellet was reconstituted in ice-cold TEE (25 mM Tris, pH 7.4, 5 mM EGTA, 5 mM EDTA). Convenient aliquots were snap-frozen in liquid nitrogen and stored at −70° C. After thawing, the cells were homogenized and centrifuged at 500×g for 5 minutes at 4° C. to pellet nuclei and unbroken cells. Tile supernatant was centrifuged at 47,000×g for 30 minutes at 4° C. The membrane pellet was washed once with TEE, resuspended in 20 mM HEPES, pH 7.4, 100 mM NaCl, 10 mM MgCl2, 1 mM EDTA (assay buffer), distributed into aliquots of 0.5-1.0 ml, and frozen in liquid nitrogen. Membrane aliquots were stored at −70° C. Membrane protein concentration was determined using the BCA Protein Assay Reagent from Pierce (Rockford, Ill.), with bovine serum albumin (i.e., BSA) as a standard.
(§3) Aliquots of cell membranes prepared as described above and stored at −70° C. were thawed, homogenized, and diluted into buffer containing 20 mM HEPES, pH 7.4, 10 mM MgCl2, 1 mM EDTA, and 100 mM NaCl at a concentration of 10-50 μg/ml. Reaction mixtures were prepared in 96-well polypropylene plate, Nunc. Twenty microliters of a 10× putative modulator compound (including but not limited to potential peptide ligands) solution or a water control (20 μl), 18.2 µM GDP (0.11 ml, 10 μM final concentration), and a membrane preparation were mixed and placed on ice. The modulator/ligand-GDP-membrane mixtures were incubated for 20 minutes at room temperature on a shaking platform and then placed on ice.
Background: Binding of GTPγS marks nucleotide exchange on a G protein.

Assay [2] concerns the target T2, CEGPCR12h receptor (Caenorhabditis elegans, UniProt Q20275).
T2 sequence (Q20275 1-402): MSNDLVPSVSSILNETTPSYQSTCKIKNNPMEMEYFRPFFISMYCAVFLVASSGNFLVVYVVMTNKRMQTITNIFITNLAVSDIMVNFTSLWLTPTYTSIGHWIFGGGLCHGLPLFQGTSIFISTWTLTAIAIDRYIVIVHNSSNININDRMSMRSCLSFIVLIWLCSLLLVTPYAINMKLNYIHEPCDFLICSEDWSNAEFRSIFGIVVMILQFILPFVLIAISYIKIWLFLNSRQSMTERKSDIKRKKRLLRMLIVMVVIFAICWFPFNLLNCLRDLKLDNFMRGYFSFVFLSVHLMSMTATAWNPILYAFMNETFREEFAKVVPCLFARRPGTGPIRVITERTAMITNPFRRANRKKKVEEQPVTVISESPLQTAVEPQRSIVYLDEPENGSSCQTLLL
Put plainly: [35S]GTPγS binding assay, CEGPCR12h expressed in CHO cells. In kind it is biochemical, C. elegans. The conditions noted are these: Table 11; one range for the group; results apply to all CEGPCR12 isoforms; read-out: EC50 range. The procedure:
as §1, §2, §3

In assay [3] the target is T3, CEGPCR5 (Caenorhabditis elegans, UniProt Q18179).
T3 sequence (Q18179 1-402): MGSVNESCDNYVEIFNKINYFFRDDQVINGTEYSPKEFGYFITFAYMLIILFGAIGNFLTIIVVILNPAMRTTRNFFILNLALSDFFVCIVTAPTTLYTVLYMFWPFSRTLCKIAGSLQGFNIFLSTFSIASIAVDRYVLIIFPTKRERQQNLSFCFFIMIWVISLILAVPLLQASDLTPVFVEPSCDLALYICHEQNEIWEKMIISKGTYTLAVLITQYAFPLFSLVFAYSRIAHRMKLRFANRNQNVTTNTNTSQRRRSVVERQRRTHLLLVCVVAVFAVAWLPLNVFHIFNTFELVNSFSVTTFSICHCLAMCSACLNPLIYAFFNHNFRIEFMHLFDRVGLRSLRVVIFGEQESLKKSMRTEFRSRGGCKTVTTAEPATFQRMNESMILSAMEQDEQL
Put plainly: [35S]GTPγS binding assay, CEGPCR5 expressed in CHO cells. In kind it is biochemical, C. elegans. The procedure:
as §1, §2, §3

For assay [4], the target named is T4, CEGPCR4 (C. elegans).
T4 construct: Expressed in CHO cells; also called CEGPCR4 receptor; CEGPCR4/CHO membranes
T4 chain: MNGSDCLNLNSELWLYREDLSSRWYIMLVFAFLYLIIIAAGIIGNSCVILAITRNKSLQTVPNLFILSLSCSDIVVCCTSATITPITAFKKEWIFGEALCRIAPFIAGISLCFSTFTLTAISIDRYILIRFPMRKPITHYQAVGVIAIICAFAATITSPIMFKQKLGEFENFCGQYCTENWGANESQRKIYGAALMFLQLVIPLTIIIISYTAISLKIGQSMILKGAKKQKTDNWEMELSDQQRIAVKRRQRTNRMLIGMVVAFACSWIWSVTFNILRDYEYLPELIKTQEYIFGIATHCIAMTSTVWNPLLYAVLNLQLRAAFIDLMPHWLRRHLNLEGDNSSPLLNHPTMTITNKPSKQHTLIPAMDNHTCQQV
Put plainly: competition binding assay, CEGPCR4/CHO membranes; IC50 range printed once for block r39-r54.

The target of assay [5] is T4, CEGPCR4. Put plainly: competition binding assay, CEGPCR4/CHO membranes; IC50 range printed once for block r26-r35.
Assay [6] concerns the target T4, CEGPCR4. Put plainly: competition binding assay, CEGPCR4/CHO membranes; IC50 range printed once for block r9-r18.
Where [7] appears, read: EC50, single values, GTPγS assay.
Setting [8] is: EC50 range, Table 7, one range for the group of peptides, cells 24 h 37° C. then 24 h 28° C.

Where no end group is shown, it is not given here. [ ]: non-standard residue; d: D form. Tyr(3-I) = N[C@@H](Cc1ccc(O)c(I)c1)C(=O)O

A word on the EC50: it is the concentration giving half of the maximal effect. On to GGPQGPLRF-NH2 [GGPQGPLRF-NH2], for which the EC50 in assay [1] (setting [7]) is 152 nM; in assay [1] (setting [8]), 150 to 400 nM; in assay [2] it was 1500 to 3000 nM.

GNSFLRF-NH2 [GNSFLRF-NH2]: the EC50 in assay [1] (setting [7]) was 7900 nM; in assay [1] (EC50 range, Table 7, cells 24 h 37° C. then 24 h 28° C.) it was roughly 8000 nM; in assay [3] it was 80 to 800 nM. In assay [1] (membranes from cells transfected and maintained at 37° C.), the “receptor activation by matched ligand” value is recorded as “not detectably activated”. Also, the “potency lower than that of the two C. elegans flp15 peptides” value in assay [1] (ratio of EC50 values) is 19-52 fold. The “ligand-induced [35S]GTPγS binding” value in assay [1] (temperature shift to 28° C. 24 hours after transfection) is given as “significant stimulation”.

As for GPSGPLRF-NH2 [GPSGPLRF-NH2], the EC50 is 422 nM in assay [1] (setting [7]) and 150 to 400 nM in assay [1] (setting [8]).

Take Ac-VPGVLRF-NH2 (synthetic) [Ac-VPGVLRF-NH2]: the binding result in assay [4] was “binds”.

B1: NGAPQPFVRF-NH2 (peptide)
peptide: NGAPQPFVRF-NH2
notes: flp11 (species cell stands one row higher, r34c4)
Consider B1, for which the binding result in assay [5] was “binds”.

As to DVPGVLRF-NH2 (flp18) [DVPGVLRF-NH2], in assay [4], the binding result was “binds”.

YVPGVLRF-NH2 (synthetic) [Y-VPGVLRF-NH2]: in assay [4], the binding result is “binds”.

As to SDNFMRF-NH2 [SDNFMRF-NH2], in assay [5], the binding result is given as “binds”.

As to PDNFMRF-NH2 [PDNFMRF-NH2], the binding result in assay [5] is “binds”.

B2: 3-Iodo-Y-PGVLRF-NH2 (peptide)
peptide: [Tyr(3-I)]PGVLRF-NH2
modifications: N-terminus assumed
SMILES: CC(C)C[C@H](NC(=O)[C@@H](NC(=O)CNC(=O)[C@@H]1CCCN1C(=O)[C@@H](N)Cc1ccc(O)c(I)c1)C(C)C)C(=O)N[C@@H](CCCNC(=N)N)C(=O)N[C@@H](Cc1ccccc1)C(N)=O
notes: synthetic
As to B2, the binding result in assay [4] was “binds”.

On to YPGVLRF-NH2 (synthetic) [Y-PGVLRF-NH2], for which the binding result in assay [4] is recorded as “binds”.

On to TNRNFLRF-NH2 [TNRNFLRF-NH2 (Lobster peptide II)], for which the binding result in assay [5] is listed as “binds”.

B3: 3-Iodo-Y-GVLRF-NH2 (peptide)
peptide: [Tyr(3-I)]GVLRF-NH2
modifications: N-terminus assumed
SMILES: CC(C)C[C@H](NC(=O)[C@@H](NC(=O)CNC(=O)[C@@H](N)Cc1ccc(O)c(I)c1)C(C)C)C(=O)N[C@@H](CCCNC(=N)N)C(=O)N[C@@H](Cc1ccccc1)C(N)=O
notes: synthetic
As for B3, the binding result in assay [4] is “binds”.

For the molecule SAEPFGTMRF-NH2 (not fully specified; printed as SAEPFGTMRF-NH2, flp3) [SAEPFGTMRF-NH2], in assay [5], the binding result is on record as “binds”.

Turning to YDVPGVLRF-NH2 (synthetic) [Y-DVPGVLRF-NH2], the binding result in assay [4] was “binds”.

Regarding EIPGVLRF-NH2 (flp18) [EIPGVLRF-NH2], the binding result in assay [6] is “binds”.

In the case of SPLGTMRF-NH2 (flp3) [SPLGTMRF-NH2], the binding result in assay [5] is listed as “binds”.

As for EIVFHQISPIFFRF-NH2 (flp14 as printed) [EIVFHQISPIFFRF-NH2], the binding result in assay [5] is given as “binds”.

B4: 3-Iodo-Y-VPGVLRF-NH2 (peptide)
peptide: [Tyr(3-I)]VPGVLRF-NH2
modifications: N-terminus assumed
SMILES: CC(C)C[C@H](NC(=O)[C@@H](NC(=O)CNC(=O)[C@@H]1CCCN1C(=O)[C@@H](NC(=O)[C@@H](N)Cc1ccc(O)c(I)c1)C(C)C)C(C)C)C(=O)N[C@@H](CCCNC(=N)N)C(=O)N[C@@H](Cc1ccccc1)C(N)=O
notes: synthetic
In the case of B4, the binding result in assay [4] was “binds”.

With GGPQGPLRF-NH2 (flp15) [GGPQGPLRF-NH2], in assay [5], the binding result was “binds”.

The record behind these values is US6632621B1, “G protein-coupled receptor-like receptors and modulators thereof” (priority 1999, dated 2003).
